Laboratory results published in patent US20120219559A1 (Johns Hopkins, published 2012).

Assays:
Test in all cases: CDS well image, 293T cells transfected with the human gene, stained with the human fusion protein
[1] = target: T1, human B7-H1 expressed on 293T cells (human, UniProt Q9NZQ7 19-290)
T1 construct: whole, on cells

[2] = target: T2, human B7-1 (CD80) expressed on 293T cells (human, UniProt P33681 35-288)
T2 construct: whole, on cells
T2 sequence (looked up): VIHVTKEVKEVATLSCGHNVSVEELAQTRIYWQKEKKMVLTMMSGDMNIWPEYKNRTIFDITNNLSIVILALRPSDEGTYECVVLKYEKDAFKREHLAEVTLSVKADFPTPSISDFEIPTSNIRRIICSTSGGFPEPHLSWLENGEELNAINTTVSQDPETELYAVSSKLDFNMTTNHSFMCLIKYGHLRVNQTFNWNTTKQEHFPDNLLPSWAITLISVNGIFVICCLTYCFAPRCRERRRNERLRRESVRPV

[3] = target: T3, human B7-DC expressed on 293T cells (human, UniProt Q9BQ51 20-273)
T3 construct: whole, on cells
T3 sequence (looked up): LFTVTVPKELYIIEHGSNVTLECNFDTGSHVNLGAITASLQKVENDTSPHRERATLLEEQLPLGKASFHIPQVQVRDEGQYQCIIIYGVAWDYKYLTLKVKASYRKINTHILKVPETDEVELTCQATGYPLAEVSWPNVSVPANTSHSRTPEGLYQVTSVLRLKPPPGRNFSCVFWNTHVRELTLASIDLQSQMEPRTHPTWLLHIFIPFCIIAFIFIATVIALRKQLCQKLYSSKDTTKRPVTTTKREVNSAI

[4] = target: T4, human B7-2 (CD86, B70) expressed on 293T cells (human, UniProt P42081 24-329)
T4 construct: whole, on cells
T4 sequence (looked up): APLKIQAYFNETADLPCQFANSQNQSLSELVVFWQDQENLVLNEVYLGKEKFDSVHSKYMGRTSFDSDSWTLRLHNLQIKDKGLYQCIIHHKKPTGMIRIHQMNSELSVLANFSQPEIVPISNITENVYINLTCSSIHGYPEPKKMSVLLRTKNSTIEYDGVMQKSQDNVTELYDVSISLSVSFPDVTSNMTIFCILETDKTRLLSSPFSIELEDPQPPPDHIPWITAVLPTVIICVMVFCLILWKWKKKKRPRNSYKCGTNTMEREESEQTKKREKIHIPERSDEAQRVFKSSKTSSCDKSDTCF

T1 sequence (Q9NZQ7 19-290): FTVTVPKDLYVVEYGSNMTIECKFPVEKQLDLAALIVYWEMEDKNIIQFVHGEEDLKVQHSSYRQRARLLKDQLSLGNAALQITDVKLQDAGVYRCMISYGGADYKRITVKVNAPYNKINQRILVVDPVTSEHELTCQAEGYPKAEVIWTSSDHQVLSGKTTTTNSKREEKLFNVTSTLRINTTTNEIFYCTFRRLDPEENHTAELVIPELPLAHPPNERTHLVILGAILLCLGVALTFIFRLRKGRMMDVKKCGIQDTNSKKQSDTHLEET

binding result [1]: no binding
binding result [2]: no binding
binding result [3]: no binding
binding result [4]: no binding
B1: human ICOSIg fusion protein (Fc fusion)
chain: EINGSANYEMFIFHNGGVQILCKYPDIVQQFKMQLLKGGQILCDLTKTKGSGNTVSIKSLKFCHSQLSNNSVSFFLYNLDHSHANYYFCNLSIFDPPPFKVTLTGGYLHIYESQLCCQLKF
notes: Bought from R&D Systems; Ig (Fc) part not given
